Results from US6284729A, “Methods and reagents for regulating obesity” (Children's Medical Center Corporation, priority 1998, dated 2001).

What was measured:
syndecan-1 ectodomain = target: T1, syndecan-1 ectodomain (Mus musculus, UniProt P18828); assay: Binding of radioactive syndecan-1 ectodomain to neuropeptides immobilized on nitrocellulose membrane (autoradiography); settings: peptides immobilized on nitrocellulose, UV cross-linked
T1 sequence (P18828 23-255 limits assumed): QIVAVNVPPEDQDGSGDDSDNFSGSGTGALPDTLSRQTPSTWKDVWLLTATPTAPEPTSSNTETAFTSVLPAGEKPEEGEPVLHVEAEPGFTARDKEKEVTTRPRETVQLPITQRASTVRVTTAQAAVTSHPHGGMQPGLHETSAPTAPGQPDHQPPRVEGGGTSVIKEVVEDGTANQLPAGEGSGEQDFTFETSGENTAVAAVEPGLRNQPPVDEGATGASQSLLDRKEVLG
Description: Binding of syndecan-1 ectodomain to neuropeptides involved in body weight regulation was tested. Varying concentrations of the peptides were immobilized on a nitrocellulose membrane (for example, 1000 nmol) and fixed by UV cross-linking. The membrane was incubated with radioactive syndecan-1 ectodomain to allow binding and then washed and analyzed by autoradiography.

melanocortin-4 receptor = assay: MC4-R adenylyl cyclase assay (conversion of ATP to cAMP) in membranes from 293 cells transfected with the melanocortin-4 receptor, with ndp-MSH; assay type: biochemical; settings: for potentiation of MC4-R inhibition by AGRP (formation of cAMP from ATP): membranes preincubated with substance plus AGRP, FIGS. 1a and 1b
Description: Based on the interaction of AGRP and syndecan-1, the putative interaction between agouti/AGRP and syndecaniheparan sulfate in a functional assay was tested. Membranes from 293 cells transfected with the melanocortin-4 receptor were preincubated with buffer or as indicated with AGRP, heparan sulfate, syndecan-1 ectodomain, heparan sulfate plus AGRP, and syndecan-1 ectodomain plus AGRP. Samples were then mixed with or without the indicated concentration of ndp-{character pullout}MSH and conversion of ATP to cAMP measured in the assay.

Mc4r = settings: recombinant protein; cited from earlier work
Mc3r = settings: recombinant protein; cited from earlier work

| Molecule | interaction with syndecan-1 (binding of radioactive syndecan-1 ectodomain to immobilized peptide) (syndecan-1 ectodomain) | potentiation of MC4-R inhibition by AGRP (formation of cAMP from ATP) (melanocortin-4 receptor) | also measured |
| --- | --- | --- | --- |
| NC(=O)CC[C@@H]1NC(=O)[C@H](Cc2ccccc2)NC(=O)[C@H](Cc2ccc(O)cc2)NC(=O)[C@@H](N)CSSC[C@@H](C(=O)N2CCC[C@H]2C(=O)N[C@@H](CCCN=C(N)N)C(=O)NCC(N)=O)NC(=O)[C@H](CC(N)=O)NC1=O [vasopressin, reference compound] | interact with syndecan-1 |  |  |
| heparan sulfate [reference compound] |  | potentiates melanocortin-4R (MC4-R) inhibition by AGRP | potency of AGRP at inhibiting MC4-R activation in presence of the substance (melanocortin-4 receptor; 1 μg/ml heparan sulfate): 10 nM AGRP is as potent as 100 nM AGRP |
| FGF-2: fibroblast growth factor-2, heparin-binding growth factor | interact with syndecan-1 |  |  |
| AGRP: Agouti-related protein, 132 aa hypothalamic analog of agouti; inhibitor of MC3-R and MC4-R (SSRRCVRLHESCLGQQVPCCDPCATCYCRFFNAFCYCRKLGTAMNPCSRT; UniProt O00253 83-132, looked up) | interact with syndecan-1 |  | antagonism of Mc4r (Mc4r): potent, selective antagonist; antagonism of Mc3r (Mc3r): potent, selective antagonist |
| syndecan-1 ectodomain: soluble extracellular domain of syndecan-1, a transmembrane heparan sulfate proteoglycan (protein, UniProt P18827 23-254, looked up, extracellular domain, soluble extracellular domain of syndecan-1, a transmembrane heparan sulfate proteoglycan) extracellular domain: QIVATNLPPEDQDGSGDDSDNFSGSGAGALQDITLSQQTPSTWKDTQLLTAIPTSPEPTGLEATAASTSTLPAGEGPKEGEAVVLPEVEPGLTAREQEATPRPRETTQLPTTHLASTTTATTAQEPATSHPHRDMQPGHHETSTPAGPSQADLHTPHTEDGGPSATERAAEDGASSQLPAAEGSGEQDFTFETSGENTAVVAVEPDRRNQSPVDQGATGASQGLLDRKEVLG |  | potentiates melanocortin-4R (MC4-R) inhibition by AGRP | potency of AGRP at inhibiting MC4-R activation in presence of the substance (melanocortin-4 receptor; 1 ng/ml syndecan-1 ectodomain): 10 nM AGRP is as potent as 100 nM AGRP; potentiation of the action of agouti on the MC4-R (melanocortin-4 receptor; biochemical assay, agouti instead of AGRP): potentiates the action of agouti on the MC4-R; concentration dependence of potentiation of AGRP's action (melanocortin-4 receptor; low versus higher concentrations of syndecan-1 ectodomain): potentiation is less pronounced at higher concentrations |
| agouti: 131 aa paracrine signaling molecule; switches hair follicle melanocytes from black to yellow pigment (protein, UniProt Q03288 23-131, looked up) Agouti-signaling protein: HLALEETLGDDRSLRSNSSMNSLDFSSVSIVALNKKSKKISRKEAEKRKRSSKKKASMKKVARPPPPSPCVATRDSCKPPAPACCDPCASCQCRFFGSACTCRVLNPNC | interact with syndecan-1 |  |  |
